# Laboratory results: US20100190693
# Legend:
# [1] = molecular target: GST-TORC2 (aa 161-181) Ser171Ala (UniProt Q53ET0)
# [2] = molecular target: T1, GST-TORC2 (aa 161-181), wild-type (UniProt Q53ET0)
# T1 sequence: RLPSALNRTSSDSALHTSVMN
# GST-TORC2 (aa 161-181) Ser171Ala, sequence (Q53ET0 whole entry S171A, looked up, the tested form may be a part): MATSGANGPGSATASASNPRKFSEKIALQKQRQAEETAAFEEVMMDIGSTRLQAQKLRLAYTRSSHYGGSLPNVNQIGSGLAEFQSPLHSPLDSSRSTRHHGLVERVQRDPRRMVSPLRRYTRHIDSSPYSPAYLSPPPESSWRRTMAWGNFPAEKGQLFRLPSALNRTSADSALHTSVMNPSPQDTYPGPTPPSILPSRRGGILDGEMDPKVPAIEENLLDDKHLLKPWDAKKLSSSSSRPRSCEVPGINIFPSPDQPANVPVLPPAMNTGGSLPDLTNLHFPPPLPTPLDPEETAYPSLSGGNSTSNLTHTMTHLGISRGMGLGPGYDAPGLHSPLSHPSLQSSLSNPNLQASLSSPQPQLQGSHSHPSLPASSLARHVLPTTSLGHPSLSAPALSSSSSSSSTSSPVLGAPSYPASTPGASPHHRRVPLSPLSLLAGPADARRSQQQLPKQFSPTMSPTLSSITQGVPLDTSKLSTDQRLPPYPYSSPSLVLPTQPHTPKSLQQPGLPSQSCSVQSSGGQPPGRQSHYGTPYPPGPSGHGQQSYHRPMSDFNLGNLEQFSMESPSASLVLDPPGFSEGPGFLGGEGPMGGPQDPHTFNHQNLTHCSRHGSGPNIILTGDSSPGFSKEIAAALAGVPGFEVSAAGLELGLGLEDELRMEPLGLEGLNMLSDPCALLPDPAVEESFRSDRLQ
substance,measurement,setting,value
purified AMPK (AMP-activated protein kinase) (Upstate Biotech),"in vitro kinase assay, 32P incorporation",[1],"Activated AMPK phosphorylated wild-type, but not Ser171Ala mutant GST-TORC2 (161-181) peptide in vitro"
same,"in vitro kinase assay, 32P incorporation",[2],"Activated AMPK phosphorylated wild-type, but not Ser171Ala mutant GST-TORC2 (161-181) peptide in vitro"
